From paper PMC11209382, “Exploring the Potentiality of a Plant Platform for Monoclonal Antibody Production in Veterinary Medicine” (Vaccines, 2024)

T1: canine neonatal Fc receptor, C-terminus biotinylated, attached to Streptavidin (cFcRn-SmBiT) (canine, biotin at the C-terminus)
T1 chain 1: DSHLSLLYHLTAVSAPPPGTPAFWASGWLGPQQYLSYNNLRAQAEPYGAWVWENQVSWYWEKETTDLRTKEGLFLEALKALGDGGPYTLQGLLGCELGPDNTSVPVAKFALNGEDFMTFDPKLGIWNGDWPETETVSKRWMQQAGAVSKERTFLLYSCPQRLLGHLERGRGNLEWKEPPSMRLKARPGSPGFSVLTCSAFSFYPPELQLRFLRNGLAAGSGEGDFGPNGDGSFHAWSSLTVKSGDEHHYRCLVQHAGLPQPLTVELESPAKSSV
T1 chain 2: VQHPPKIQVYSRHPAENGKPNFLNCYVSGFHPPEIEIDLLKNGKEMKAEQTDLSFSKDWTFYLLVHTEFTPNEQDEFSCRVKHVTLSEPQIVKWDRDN

T2: recombinant canine Interleukin 31 produced in HEK cells (canine)
T2 construct: canine Interleukin 31 (IL-31); also called rcIL-31 (HEK); cIL-31 (HEK); source: produced in HEK cells
T2 chain: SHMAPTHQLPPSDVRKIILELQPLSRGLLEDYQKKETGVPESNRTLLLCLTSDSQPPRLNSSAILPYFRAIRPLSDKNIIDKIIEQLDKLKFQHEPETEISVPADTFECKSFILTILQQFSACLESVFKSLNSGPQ

T3: recombinant canine Interleukin 31 produced in HEK cells (canine)
T3 chain: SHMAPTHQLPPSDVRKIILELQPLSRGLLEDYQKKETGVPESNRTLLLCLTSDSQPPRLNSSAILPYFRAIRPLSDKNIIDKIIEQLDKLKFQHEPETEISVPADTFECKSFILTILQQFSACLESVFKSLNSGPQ

B1: plant-made anti-cIL-31 monoclonal antibody M1 produced in wild-type N. benthamiana (antibody)
chain 1: EVQLVESGGDLVKPGGSLRLSCVASGFTFSNYGMSWVRQAPGKGLQWVATISYGGSYTYYPDNIKGRFTISRDNAKNTLYLQMNSLRAEDTAMYYCVRGYGYDTMDYWGQGTLVTVSS
chain 2: EIVMTQSPASLSLSQEEKVTITCKASQSVSFAGTGLMHWYQQKPGQAPKLLIYRASNLEAGVPSRFSGSGSGTDFSFTISSLEPEDVAVYYCQQSREYPWTFGQGTKLEIK
B2: plant-made anti-cIL-31 monoclonal antibody M1 produced in FucT/XylT mutant (ΔXF) N. benthamiana (antibody, V domains shown)
VH: EVQLVESGGDLVKPGGSLRLSCVASGFTFSNYGMSWVRQAPGKGLQWVATISYGGSYTYYPDNIKGRFTISRDNAKNTLYLQMNSLRAEDTAMYYCVRGYGYDTMDYWGQGTLVTVSS
VL: EIVMTQSPASLSLSQEEKVTITCKASQSVSFAGTGLMHWYQQKPGQAPKLLIYRASNLEAGVPSRFSGSGSGTDFSFTISSLEPEDVAVYYCQQSREYPWTFGQGTKLEIK
notes: CAN-34D03-VH-568-1); CAN 34D03-VL998-1); LC constant domain kappa (XP_035562095.1); Full IgG; N-glycans lack core α(1,3)-fucose and β(1,2)-xylose; also called M1 ΔXF; plant-made Lokivetmab biosimilar; source: ΔXF N. benthamiana, transient expression, purified (Protein A: Hi Screen Fibro PrismA)
B3: Lokivetmab (antibody, V domains shown)
VH: EVQLVESGGDLVKPGGSLRLSCVASGFTFSNYGMSWVRQAPGKGLQWVATISYGGSYTYYPDNIKGRFTISRDNAKNTLYLQMNSLRAEDTAMYYCVRGYGYDTMDYWGQGTLVTVSS
VL: EIVMTQSPASLSLSQEEKVTITCKASQSVSFAGTGLMHWYQQKPGQAPKLLIYRASNLEAGVPSRFSGSGSGTDFSFTISSLEPEDVAVYYCQQSREYPWTFGQGTKLEIK
notes: Caninized IgG; major N-glycoform GnGnF (79%); also called caninized monoclonal antibody targeting IL-31; commercial homolog of M1; source: produced in CHO cells; commercial product

How the values were obtained:
[1] = target: canine neonatal Fc receptor, C-terminus biotinylated, attached to Streptavidin (cFcRn-SmBiT) (canine); assay: other; competition with IgG-LgBiT tracer
[2] = target: recombinant canine Interleukin 31 produced in Nicotiana benthamiana (canine); assay: SEC; elution volume on a calibrated Superdex 200 column; monomer to dimer
[3] = target: recombinant canine Interleukin 31 produced in Nicotiana benthamiana (canine); assay: dynamic light scattering; hydrodynamic radius of cIL-31 at pH 7.5; monomer to dimer
[4] = target: recombinant canine Interleukin 31 produced in HEK cells (canine); assay: as above
[5] = target: T1, canine neonatal Fc receptor, C-terminus …; assay: competition with IgG-LgBiT tracer
[6] = target: T2, recombinant canine Interleukin 31 …; assay: BLI; Lokivetmab or M1 (5 nM) immobilised on ProA biosensors to 1 nm; rcIL-31 (HEK) 300 to 80 nM in solution; 25 °C, PBS pH 7.4, 0.1% BSA, 0.02% Tween; association 360 s, dissociation 600 s; global fit, KD from kd/ka; settings: both partners purified
[7] = target: T3, recombinant canine Interleukin 31 …; assay: BLI

Row | Molecule | IC50 [5] | Kd [6] | koff [7] | also measured
1 | Lokivetmab |  |  |  | IC50 [1]: 68.7 µg/mL
2 | recombinant canine Interleukin 31 produced in Nicotiana benthamiana (ligand) |  |  |  | stoichiometry N [2]: 2; stoichiometry N [3]: 2
3 | recombinant canine Interleukin 31 produced in HEK cells (ligand) |  |  |  | stoichiometry N [4]: 2
4 | B1 | 17.9 µg/mL |  |  | 
5 | B2 | 21.6 µg/mL | 28.5 nM | 0.00345 s⁻¹ | 
6 | B3 |  | 27.4 nM | 0.00205 s⁻¹ | 
